The source of these data is US20190169269.

Data set [1] has as its target T1, Elactiv′ polypeptide (polypeptide derived from tropoelastin, Cys-Flag-tagged).
T1 chain: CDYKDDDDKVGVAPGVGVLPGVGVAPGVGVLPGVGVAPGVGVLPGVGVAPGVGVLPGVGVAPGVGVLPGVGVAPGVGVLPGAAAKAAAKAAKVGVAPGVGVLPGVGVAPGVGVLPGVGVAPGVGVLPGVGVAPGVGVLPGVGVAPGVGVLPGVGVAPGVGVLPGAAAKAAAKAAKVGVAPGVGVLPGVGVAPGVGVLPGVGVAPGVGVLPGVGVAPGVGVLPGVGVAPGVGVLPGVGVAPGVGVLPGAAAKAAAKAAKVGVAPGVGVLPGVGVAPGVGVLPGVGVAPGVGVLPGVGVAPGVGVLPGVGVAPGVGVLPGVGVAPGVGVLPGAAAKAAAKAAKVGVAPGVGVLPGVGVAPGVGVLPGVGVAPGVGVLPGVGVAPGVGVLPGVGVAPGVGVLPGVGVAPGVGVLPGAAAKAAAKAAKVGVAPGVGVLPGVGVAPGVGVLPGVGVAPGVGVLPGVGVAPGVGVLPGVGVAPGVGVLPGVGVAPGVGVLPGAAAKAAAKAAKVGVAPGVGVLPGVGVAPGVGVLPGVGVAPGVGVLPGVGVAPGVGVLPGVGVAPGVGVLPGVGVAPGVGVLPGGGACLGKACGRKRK

Data set [2] has as its target T2, recombinant human tropoelastin (hTE) (Sigma-Aldrich), P15502.
T2 chain: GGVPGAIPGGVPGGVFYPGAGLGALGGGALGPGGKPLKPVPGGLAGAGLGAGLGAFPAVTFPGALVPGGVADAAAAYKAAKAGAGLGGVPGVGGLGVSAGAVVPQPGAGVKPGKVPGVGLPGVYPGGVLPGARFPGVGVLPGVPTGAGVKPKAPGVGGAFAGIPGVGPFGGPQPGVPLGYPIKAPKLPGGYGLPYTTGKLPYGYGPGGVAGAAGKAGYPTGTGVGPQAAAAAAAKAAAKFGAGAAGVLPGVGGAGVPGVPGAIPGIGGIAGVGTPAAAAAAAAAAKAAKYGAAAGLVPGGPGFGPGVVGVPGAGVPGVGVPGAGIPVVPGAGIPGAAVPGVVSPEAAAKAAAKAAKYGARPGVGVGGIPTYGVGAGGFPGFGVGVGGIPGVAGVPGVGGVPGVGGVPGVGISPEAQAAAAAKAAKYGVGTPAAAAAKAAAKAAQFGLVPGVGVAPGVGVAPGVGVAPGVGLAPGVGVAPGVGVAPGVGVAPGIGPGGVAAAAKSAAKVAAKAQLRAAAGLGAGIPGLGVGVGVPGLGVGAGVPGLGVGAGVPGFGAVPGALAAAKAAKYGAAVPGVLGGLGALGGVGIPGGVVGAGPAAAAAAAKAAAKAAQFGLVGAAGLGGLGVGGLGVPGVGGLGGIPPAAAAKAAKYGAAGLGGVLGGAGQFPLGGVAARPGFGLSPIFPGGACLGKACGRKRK

B1: recombinant human MMP-12 (protein)
chain: GPVWRKHYITYRINNYTPDMNREDVDYAIRKAFQVWSNVTPLKFSKINTGMADILVVFARGAHGDFHAFDGKGGILAHAFGPGSGIGGDAHFDEDEFWTTHSGGTNLFLTAVHEIGHSLGLGHSSDPKAVMFPTYKYVDINTFRLSADDIRGIQSLYGDPKENQRLPNPDNSEPALCDPNLSFDAVTTVGNKIFFFKDRFFWLKVSERPKTSVNLISSLWPTLPSGIEAAYEIEARNQVFLFKDDKYWLISNLRPEPNYPKSIHSFGFPNFVKKIDAAVFNPRFYRTYFFVDNQYWRYDERRQMMDPGYPKLITKNFQGIGPKIDAVFYSKNKYYYFFQGSNQFEYDFLLQRITKTLKSNSWFGC
In the case of B1, the “kinetics of degradation by rhMMP-12, Western blot” value is reported as “Elactiv′ is progressively degraded by MMP-12, but to a lesser extent than human tropoelastin” in data set [1] and “Elactiv′ is progressively degraded by MMP-12, but to a lesser extent than human tropoelastin” in data set [2].
